Tests used:
HeLa Kyoto [1] = assay: melting temperature (median over replicates), in situ; higher = more thermally stable
HeLa Kyoto [2] = assay: thermal stability score vs G1/S (z-score of summed log2 fold changes over temperatures); higher = more thermally stable than in G1/S
HeLa Kyoto [3] = assay: solubility in G1/S (NP-40 vs SDS abundance) (log2 ratio); higher = more soluble; settings: cell cycle stage: G1/S
HeLa Kyoto [4] = assay: solubility change mitosis vs G1/S (difference of NP-40 vs SDS log2 ratios) (log2 ratio difference); higher = more soluble in mitosis
[5] = cell cycle stage: early G1 (4.5 h after nocodazole release)
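For melting temperature (median over replicates), in situ in this document: HeLa Kyoto cells synchronized by double thymidine or nocodazole block, proteins quantified by TMT10plex mass spectrometry, three independent biological replicates.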
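For solubility change mitosis vs G1/S (difference of NP-40 vs SDS log2 ratios) in this document: synchronized HeLa Kyoto cells (double thymidine block for G1/S, nocodazole release for mitosis), protein amounts in NP-40 versus SDS lysates quantified by mass spectrometry, three biological replicates.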
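For solubility in G1/S (NP-40 vs SDS abundance) in this document: HeLa Kyoto cells arrested at G1/S by double thymidine block, proteins quantified by TMT10plex mass spectrometry in mild NP-40 versus SDS extracts, three biological replicates.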
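For thermal stability score vs G1/S (z-score of summed log2 fold changes over temperatures) in this document: synchronized HeLa Kyoto cells, proteins quantified by TMT10plex mass spectrometry, three biological replicates, mitosis taken 0.5 h after nocodazole release, G1/S directly after double thymidine block.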

Substance	melting temperature (HeLa Kyoto [1]; cell cycle stage: G1/S) [°C]	melting temperature (HeLa Kyoto [1]; cell cycle stage: mitosis) [°C]	thermal stability score (HeLa Kyoto [2]; [5])	thermal stability score (HeLa Kyoto [2]; cell cycle stage: mitosis)	solubility in G1/S (log2) (HeLa Kyoto [3])	solubility change mitosis (log2) (HeLa Kyoto [4])
MAAVSGLVRRPLREVSGLLKRRFHWTAPAALQVTVRDAINQGMDEELERDEKVFLLGEEVAQYDGAYKVSRGLWKKYGDKRIIDTPISEMGFAGIAVGAAMAGLRPICEFMTFNFSMQAIDQVINSAAKTYYMSGGLQPVPIVFRGPNGASAGVAAQHSQCFAAWYGHCPGLKVVSPWNSEDAKGLIKSAIRDNNPVVVLENELMYGVPFEFPPEAQSKDFLIPIGKAKIERQGTHITVVSHSRPVGHCLEAAAVLSKEGVECEVINMRTIRPMDMETIEASVMKTNHLVTVEGGWPQFGVGAEICARIMEGPAFNFLDAPAVRVTGADVPMPYAKILEDNSIPQVKDIIFAIKKTLNI [PDHB]	51.7	51.4	-1.24	-2.38	0.196	-0.117
MAARVLRARGAAWAGGLLQRAAPCSLLPRLRTWTSSSNRSREDSWLKSLFVRKVDPRKDAHSNLLAKKETSNLYKLQFHNVKPECLEAYNKICQEVLPKIHEDKHYPCTLVGTWNTWYGEQDQAVHLWRYEGGYPALTEVMNKLRENKEFLEFRKARSDMLLSRKNQLLLEFSFWNEPVPRSGPNIYELRSYQLRPGTMIEWGNYWARAIRFRQDGNEAVGGFFSQIGQLYMVHHLWAYRDLQTREDIRNAAWHKHGWEELVYYTVPLIQEMESRIMIPLKTSPLQ [GBAS]	53.7	53.3	-0.626	-0.959	0.0162	-0.0463
MAAAGGGGGGAAAAGRAYSFKVVLLGEGCVGKTSLVLRYCENKFNDKHITTLQASFLTKKLNIGGKRVNLAIWDTAGQERFHALGPIYYRDSNGAILVYDITDEDSFQKVKNWVKELRKMLGNEICLCIVGNKIDLEKERHVSIQEAESYAESVGAKHYHTSAKQNKGIEELFLDLCKRMIETAQVDERAKGNGSSQPGTARRGVQIIDDEPQAQTSGGGCCSSG [RAB21]	60.4	60.5	-1.73	-1.92	0.158	-0.0826
MDVLVSECSARLLQQEEEIKSLTAEIDRLKNCGCLGASPNLEQLQEENLKLKYRLNILRKSLQAERNKPTKNMINIISRLQEVFGHAIKAAYPDLENPPLLVTPSQQAKFGDYQCNSAMGISQMLKTKEQKVNPREIAENITKHLPDNECIEKVEIAGPGFINVHLRKDFVSEQLTSLLVNGVQLPALGENKKVIVDFSSPNIAKEMHVGHLRSTIIGESISRLFEFAGYDVLRLNHVGDWGTQFGMLIAHLQDKFPDYLTVSPPIGDLQVFYKESKKRFDTEEEFKKRAYQCVVLLQGKNPDITKAWKLICDVSRQELNKIYDALDVSLIERGESFYQDRMNDIVKEFEDRGFVQVDDGRKIVFVPGCSIPLTIVKSDGGYTYDTSDLAAIKQRLFEEKADMIIYVVDNGQSVHFQTIFAAAQMIGWYDPKVTRVFHAGFGVVLGEDKKKFKTRSGETVRLMDLLGEGLKRSMDKLKEKERDKVLTAEELNAAQTSVAYGCIKYADLSHNRLNDYIFSFDKMLDDRGNTAAYLLYAFTRIRSIARLANIDEEMLQKAARETKILLDHEKEWKLGRCILRFPEILQKILDDLFLHTLCDYIYELATAFTEFYDSCYCVEKDRQTGKILKVNMWRMLLCEAVAAVMAKGFDILGIKPVQRM [RARS]	49	48.9	0.328	1.95	-0.181	-0.175
MAVRSLWAGRLRVQRLLAWSAAWESKGWPLPFSTATQRTAGEDCRSEDPPDELGPPLAERALRVKAVKLEKEVQDLTVRYQRAIADCENIRRRTQRCVEDAKIFGIQSFCKDLVEVADILEKTTECISEESEPEDQKLTLEKVFRGLLLLEAKLKSVFAKHGLEKLTPIGDKYDPHEHELICHVPAGVGVQPGTVALVRQDGYKLHGRTIRLARVEVAVESQRRL [GRPEL2]	–	48.4	-0.696	2.19	0.335	-0.104
MEPSSKKLTGRLMLAVGGAVLGSLQFGYNTGVINAPQKVIEEFYNQTWVHRYGESILPTTLTTLWSLSVAIFSVGGMIGSFSVGLFVNRFGRRNSMLMMNLLAFVSAVLMGFSKLGKSFEMLILGRFIIGVYCGLTTGFVPMYVGEVSPTALRGALGTLHQLGIVVGILIAQVFGLDSIMGNKDLWPLLLSIIFIPALLQCIVLPFCPESPRFLLINRNEENRAKSVLKKLRGTADVTHDLQEMKEESRQMMREKKVTILELFRSPAYRQPILIAVVLQLSQQLSGINAVFYYSTSIFEKAGVQQPVYATIGSGIVNTAFTVVSLFVVERAGRRTLHLIGLAGMAGCAILMTIALALLEQLPWMSYLSIVAIFGFVAFFEVGPGPIPWFIVAELFSQGPRPAAIAVAGFSNWTSNFIVGMCFQYVEQLCGPYVFIIFTVLLVLFFIFTYFKVPETKGRTFDEIASGFRQGGASQSDKTPEELFHPLGADSQV [SLC2A1]	57.3	–	-1.89	-3.29	0.0648	-0.284
LSM14B	49.6	50	0.76	1.45	0.0485	0.137
MIRNGRGAAGGAEQPGPGGRRAVRVWCDGCYDMVHYGHSNQLRQARAMGDYLIVGVHTDEEIAKHKGPPVFTQEERYKMVQAIKWVDEVVPAAPYVTTLETLDKYNCDFCVHGNDITLTVDGRDTYEEVKQAGRYRECKRTQGVSTTDLVGRMLLVTKAHHSSQEMSSEYREYADSFGKCPGGRNPWTGVSQFLQTSQKIIQFASGKEPQPGETVIYVAGAFDLFHIGHVDFLEKVHRLAERPYIIAGLHFDQEVNHYKGKNYPIMNLHERTLSVLACRYVSEVVIGAPYAVTAELLSHFKVDLVCHGKTEIIPDRDGSDPYQEPKRRGIFRQIDSGSNLTTDLIVQRIITNRLEYEARNQKKEAKELAFLEAARQQAAQPLGERDGDF [PCYT2]	54.1	54.9	0.197	0.0948	0.000861	-0.199
MYO5B	49.7	53.1	-0.778	-0.163	-0.588	0.158
MATRSCREKAQKLNEQHQLILSKLLREEDNKYCADCEAKGPRWASWNIGVFICIRCAGIHRNLGVHISRVKSVNLDQWTAEQIQCMQDMGNTKARLLYEANLPENFRRPQTDQAVEFFIRDKYEKKKYYDKNAIAITNISSSDAPLQPLVSSPSLQAAVDKNKLEKEKEKKKEEKKREKEPEKPAKPLTAEKLQKKDQQLEPKKSTSPKKAAEPTVDLLGLDGPAVAPVTNGNTTVPPLNDDLDIFGPMISNPLPATVMPPAQGTPSAPAAATLSTVTSGDLDLFTEQTTKSEEVAKKQLSKDSILSLYGTGTIQQQSTPGVFMGPTNIPFTSQAPAAFQGFPSMGVPVPAAPGLIGNVMGQSPSMMVGMPMPNGFMGNAQTGVMPLPQNVVGPQGGMVGQMGAPQSKFGLPQAQQPQWSLSQMNQQMAGMSISSATPTAGFGQPSSTTAGWSGSSSGQTLSTQLWK [SMAP1]	51.2	51.3	0.468	-0.266	-0.0223	-0.142
MDRPLSSSAEAEEELEWQVASRRRKAWAKCRSSWQASETEDLSTEATTQDEEEDEEEDLPGAQLPAAGGRGNVPNEKIAIWLKDCRTPLGASLDEQSSSTLKGVLVRNGGSFEDDLSLGAEANHLHESDAQIENCNNILAKERRLQFHQKGRSMNSTGSGKSSGTVSSVSELLELYEEDPEEILYNLGFGRDEPDIASKIPSRFFNSSSFAKGIDIKVFLSAQMQRMEVENPNYALTSRFRQIEVLTTVANAFSSLYSQVSGTPLQRIGSMSSVTSNKETDPPPPLTRSNTANRLMKTLSKLNLCVDKTEKGESSSPSPSAEKGKILNVSVIEESGNKNDQKSQKIMKKKESSSMLATVKEEVSGSSAAVTENADSDRISDEANSNFNQGTENEQSKETQSHESKLGEESGIVESKLDSDFNISSHSELENSSELKSVHISTPEKEPCAPLTIPSIRNIMTQQKDSFEMEEVQSTEGEAPHVPATYQLGLTKSKRDHLLRTASQHSDSSGFAEDSTDCLSLNHLQVQESLQAMGSSADSCDSETTVTSLGEDLATPTAQDQPYFNESEEESLVPLQKGLEKAAAVADKRKSGSQDFPQCNTIENTGTKQSTCSPGDHIIEITEVEEDLFPAETVELLREASAESDVGKSSESEFTQYTTHHILKSLASIEAKCSDMSSENTTGPPSSMDRVNTALQRAQMKVCSLSNQRMGRSLLKSKDLLKQRYLFAKAGYPLRRSQSLPTTLLSPVRVVSSVNVRLSPGKETRCSPPSFTYKYTPEEEQELEKRVMEHDGQSLVKSTIFISPSSVKKEEAPQSEAPRVEECHHGRTPTCSRLAPPPMSQSTCSLHSIHSEWQERPLCEHTRTLSTHSVPNISGATCSAFASPFGCPYSHRHATYPYRVCSVNPPSAIEMQLRRVLHDIRNSLQNLSQYPMMRGPDPAAAPYSTQKSSVLPLYENTFQELQVMRRSLNLFRTQMMDLELAMLRQQTMVYHHMTEEERFEVDQLQGLRNSVRMELQDLELQLEERLLGLEEQLRAVRMPSPFRSSALMGMCGSRSADNLSCPSPLNVMEPVTELMQEQSYLKSELGLGLGEMGFEIPPGESSESVFSQATSESSSVCSGPSHANRRTGVPSTASVGKSKTPLVARKKVFRASVALTPTAPSRTGSVQTPPDLESSEEVDAAEGAPEVVGPKSEVEEGHGKLPSMPAAEEMHKNVEQDELQQVIREIKESIVGEIRREIVSGLLAAVSSSKASNSKQDYH [SSFA2]	50.8	49.8	-1.42	-0.947	-0.81	0.802
MAEEQGRERDSVPKPSVLFLHPDLGVGGAERLVLDAALALQARGCSVKIWTAHYDPGHCFAESRELPVRCAGDWLPRGLGWGGRGAAVCAYVRMVFLALYVLFLADEEFDVVVCDQVSACIPVFRLARRRKKILFYCHFPDLLLTKRDSFLKRLYRAPIDWIEEYTTGMADCILVNSQFTAAVFKETFKSLSHIDPDVLYPSLNVTSFDSVVPEKLDDLVPKGKKFLLLSINRYERKKNLTLALEALVQLRGRLTSQDWERVHLIVAGGYDERVLENVEHYQELKKMVQQSDLGQYVTFLRSFSDKQKISLLHSCTCVLYTPSNEHFGIVPLEAMYMQCPVIAVNSGGPLESIDHSVTGFLCEPDPVHFSEAIEKFIREPSLKATMGLAGRARVKEKFSPEAFTEQLYRYVTKLLV [ALG2]	51	51.3	0.227	0.342	-0.0813	-0.229

From the supplement of paper PMC5998384
